Measurements as given in publication PMC2171315 (The Journal of Cell Biology, 2005).

Molecular target: GST-Nup2p (S. cerevisiae, UniProt P32499 1-720)
Assay: pull-down

GST-Nup2p, sequence (P32499 whole entry): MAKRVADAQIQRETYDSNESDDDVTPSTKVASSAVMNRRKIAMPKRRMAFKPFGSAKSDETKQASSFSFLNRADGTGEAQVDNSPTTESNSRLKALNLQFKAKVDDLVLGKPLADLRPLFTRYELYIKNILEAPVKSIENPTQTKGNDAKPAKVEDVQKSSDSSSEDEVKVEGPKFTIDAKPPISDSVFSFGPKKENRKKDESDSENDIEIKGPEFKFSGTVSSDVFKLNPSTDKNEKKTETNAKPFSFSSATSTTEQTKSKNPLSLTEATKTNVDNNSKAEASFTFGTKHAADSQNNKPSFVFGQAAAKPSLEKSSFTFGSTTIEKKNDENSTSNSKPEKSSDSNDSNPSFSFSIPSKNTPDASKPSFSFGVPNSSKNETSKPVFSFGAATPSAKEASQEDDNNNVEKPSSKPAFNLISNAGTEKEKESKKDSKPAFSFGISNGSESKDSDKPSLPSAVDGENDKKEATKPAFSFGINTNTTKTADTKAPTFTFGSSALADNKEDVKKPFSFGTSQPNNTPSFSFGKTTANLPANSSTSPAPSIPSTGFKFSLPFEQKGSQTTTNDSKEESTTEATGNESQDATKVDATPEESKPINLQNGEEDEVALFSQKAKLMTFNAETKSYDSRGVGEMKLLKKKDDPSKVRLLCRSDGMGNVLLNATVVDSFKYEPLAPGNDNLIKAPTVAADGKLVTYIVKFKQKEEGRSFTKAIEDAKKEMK

B1: Bacterially expressed and purified Prp20p (natural protein)
chain: MVKRTVATNGDASGAHRAKKMSKTHASHIINAQEDYKHMYLSVQPLDIFCWGTGSMCELGLGPLAKNKEVKRPRLNPFLPRDEAKIISFAVGGMHTLALDEESNVWSWGCNDVGALGRDTSNAKEQLKDMDADDSSDDEDGDLNELESTPAKIPRESFPPLAEGHKVVQLAATDNMSCALFSNGEVYAWGTFRCNEGILGFYQDKIKIQKTPWKVPTFSKYNIVQLAPGKDHILFLDEEGMVFAWGNGQQNQLGRKVMERFRLKTLDPRPFGLRHVKYIASGENHCFALTKDNKLVSWGLNQFGQCGVSEDVEDGALVTKPKRLALPDNVVIRSIAAGEHHSLILSQDGDLYSCGRLDMFEVGIPKDNLPEYTYKDVHGKARAVPLPTKLNNVPKFKSVAAGSHHSVAVAQNGIAYSWGFGETYAVGLGPFEDDTEVPTRIKNTATQDHNIILVGCGGQFSVSGGVKLSDEDAEKRADEMDD
Question: Does B1 bind?
Answer: binds
